Laboratory results taken from patent publication US20040259096A1, “Receptor capture assay” (priority 2001, published 2004).

Tests used:
[1] = tested on: HIF-1α; assay: Detecting HIF-1α activation in cytosolic extracts of HeLa S3 cells, anti-ARNT capture, real-time PCR; format: cell-based, human
Method: HIF-1 DNA binding activity was induced as follows. Actively dividing HeLa S3 cells were treated with 125 μM CoCl2 for 4 hr at 37° C. Cells were washed 2× in tissue culture dishes with ice cold phosphate-buffered saline (PBS) before harvesting. Cells were pelleted at 420×g for 5 min, washed twice with PBS and resuspended in 5 packed cell volumes of buffer A (10 mM Tris-HCl (pH 7.6), 1.5 mM MgCl2, 10 mM KCl, 1 mM DTT) supplemented with Sigma protease inhibitor cocktail (P 8340, Sigma Chemical Co., St. Louis, Mo.). After incubation on ice for 15 min, cells were pelleted at 450×g for 5 min, resuspended in 2 packed cell volumes of buffer C (0.42 M KCl, 20 mM Tris-HCl (pH 7.6), 20% glycerol, 1.5 MM MgCl2, 1 mM DTT and 0.2 mM EDTA) supplemented with Sigma protease inhibitor cocktail. The cells were disrupted using a Branson Sonifier 450 (Branson Ultrasonics Corp., Danbury, Conn.) fitted with a microtip for two 20-second pulses at a 45% duty cycle. After centrifugation at 20,000×g for 5 min, the supernatant was designated as cytosolic extract. The cytosolic extracts from treated and untreated cells were aliquoted and stored at −80° C. […]
Primers PRIHa and PRIHb (0.9 μM final) were added to 2×PCR SYBR® Green Master Mix (Applied Biosystems Cat No. 4309155) and the Master Mix made 1× with Water. […] 50 μl of master mix from each well was transferred to a PCR plate, capped and analyzed by real-time PCR using an Opticon thermocycler (MJ Research, Inc., Watham, Mass.). […]
In brief cytosolic extracts prepared from untreated or CoCl2 treated cells were diluted and exposed to nucleic acid-tracer. […] DNA amplification was monitored using real-time PCR. The process takes only a few hours to complete and provides qualitative or quantitative results.
The PCR data is typically plotted as a primary growth curve. For quantitative and comparative purposes, a threshold cycle (Ct) is defined for each sample. […] The Ct value is typically calculated near the first cycle where the PCR products are amplified at the greatest rate (no reagent is limiting) and where the amplified product is detectable above background. […]

[2] = molecular target: T1, Estrogen receptor alpha (Homo sapiens, UniProt P03372 P03372:1-595); assay: anti-ER capture PCR; DMSO 137, estradiol […]; 25 mM Tris pH 8.0, 50 mM KCl, 4 C; ligand independent; details: tags: baculovirus expressed, Panvera P2187; chain copies: 2
T1 sequence (P03372 whole entry, one chain of several): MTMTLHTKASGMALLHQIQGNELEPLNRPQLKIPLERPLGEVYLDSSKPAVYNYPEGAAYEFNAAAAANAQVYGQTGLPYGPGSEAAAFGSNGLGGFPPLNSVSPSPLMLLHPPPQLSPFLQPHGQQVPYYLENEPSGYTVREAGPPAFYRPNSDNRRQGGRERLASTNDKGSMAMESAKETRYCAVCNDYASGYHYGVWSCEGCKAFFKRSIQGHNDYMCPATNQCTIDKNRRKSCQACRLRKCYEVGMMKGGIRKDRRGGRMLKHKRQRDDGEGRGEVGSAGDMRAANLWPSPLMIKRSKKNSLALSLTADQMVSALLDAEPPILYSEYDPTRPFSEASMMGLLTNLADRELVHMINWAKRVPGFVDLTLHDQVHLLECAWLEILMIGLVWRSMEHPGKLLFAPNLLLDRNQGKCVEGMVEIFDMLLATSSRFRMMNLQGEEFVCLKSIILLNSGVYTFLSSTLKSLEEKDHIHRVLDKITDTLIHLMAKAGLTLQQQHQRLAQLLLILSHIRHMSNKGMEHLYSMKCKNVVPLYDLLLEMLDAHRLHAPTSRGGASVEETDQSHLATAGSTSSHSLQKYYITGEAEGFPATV

[3] = molecular target: T1, Estrogen receptor alpha; assay: competition; 100-fold excess reduces tracer signal 104 to 81; details: tags: baculovirus expressed, Panvera P2187; chain copies: 2
[4] = molecular target: T2, Glucocorticoid receptor (UniProt P04150 P04150:1-777); assay: competition; 100-fold excess reduces tracer signal 68 to 44; details: tags: baculovirus expressed, Panvera P2187 (so in the source)
T2 sequence (P04150 whole entry, one chain of several): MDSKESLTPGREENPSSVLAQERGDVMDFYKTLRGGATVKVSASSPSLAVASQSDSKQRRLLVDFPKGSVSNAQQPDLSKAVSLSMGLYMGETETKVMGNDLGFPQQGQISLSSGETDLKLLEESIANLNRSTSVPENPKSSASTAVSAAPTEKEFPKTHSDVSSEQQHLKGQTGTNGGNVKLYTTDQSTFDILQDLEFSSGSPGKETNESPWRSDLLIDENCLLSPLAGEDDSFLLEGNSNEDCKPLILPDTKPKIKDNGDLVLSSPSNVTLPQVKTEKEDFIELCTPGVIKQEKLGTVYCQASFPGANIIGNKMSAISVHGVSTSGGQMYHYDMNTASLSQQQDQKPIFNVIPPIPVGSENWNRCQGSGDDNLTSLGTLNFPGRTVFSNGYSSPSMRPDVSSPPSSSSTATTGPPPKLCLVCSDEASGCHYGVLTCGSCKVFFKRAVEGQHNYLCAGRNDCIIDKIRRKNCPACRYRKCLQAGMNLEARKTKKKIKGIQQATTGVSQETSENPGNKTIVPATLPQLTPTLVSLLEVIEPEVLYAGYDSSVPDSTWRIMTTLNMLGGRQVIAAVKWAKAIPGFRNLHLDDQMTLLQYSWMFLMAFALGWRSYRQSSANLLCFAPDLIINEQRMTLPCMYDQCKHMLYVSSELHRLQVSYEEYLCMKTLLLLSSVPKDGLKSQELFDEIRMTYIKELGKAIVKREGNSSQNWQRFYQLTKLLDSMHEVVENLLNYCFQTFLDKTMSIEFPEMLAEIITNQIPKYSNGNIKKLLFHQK

[5] = molecular target: T2, Glucocorticoid receptor; assay: anti-GR capture PCR; DMSO 82, dexamethasone 68; 25 mM Tris pH 7.9, 60 mM KCl, 4 C; ligand independent; details: tags: baculovirus expressed, Panvera P2187 (so in the source)

**Q.** Which results are given for `[Cl][Co][Cl]` [CoCl2, cobalt chloride]?
**A.** Ct Value ([1]; cytosol of treated cells (CoCl2), plus 100x DNA competitor): 22.52; Ct Value ([1]; cytosol of treated cells (CoCl2, 4 hr), no DNA competitor, untreated 23.08): 20.47; difference of Ct values, treated versus untreated cytosolic preparations ([1]; no DNA competitor): more than 2.60 units

B1: ERE tracer (VER1/VER2) (dsDNA)
DNA 1: CAACTTCATCCACGTTCACCGTCCAAAGTCAGGTCACAGTGACCTGATCAAAGTTGTACCTGTCCTTGGCTCTTC
DNA 2: GAAGAGCCAAGGACAGGTACAACTTTGATCAGGTCACTGTGACCTGACTTTGGACGGTGAACGTGGATGAAGTTG
**Q.** Does B1 bind [2]?
**A.** Result: binds

B2: competitor ERE (DX1/DX3) (dsDNA)
DNA 1: CTAGAAAGTCAGGTCACAGTGACCTG
DNA 2: CAGGTCACTGTGACCTGACTTTCTAG
**Q.** Does B2 bind [3]?
**A.** Result: binds

B3: competitor GRE (TGR1/TGR2) (dsDNA)
DNA 1: GCTGTACAGGATGTTCTGCC
DNA 2: GGCAGAACATCCTGTACAGC
**Q.** Does B3 bind [4]?
**A.** Result: binds

B4: GRE tracer (BGGR1/BGGR2) (dsDNA)
DNA 1: CAACTTCATCCACGTTCACCGCTGTACAGGATGTTCTGCCGTACCTGTCCTTGGCTCTTC
DNA 2: GAAGAGCCAAGGACAGGTACGGCAGAACATCCTGTACAGCGGTGAACGTGGATGAAGTTG
**Q.** Does B4 bind [5]?
**A.** Result: binds
